Source: patent US20040014636A1, “Pharmaceutical compositions comprising a modulator of adamts-1” (priority 2000, published 2004)

Experiments:
[1] = system: ADAMTS-1 message in THP-1 cells; test: Real time PCR of ADAMTS-1 message in THP-1 cells; type: cell-based, human; conditions: PMA 160 nM, 0 to 8+1 days
Method: THP-1 cells were cultured in RPMI 1640 media supplemented with 10% FBS, penicillin-Streptomycin, sodium pyruvate, and nonessential amino acids (Sigma). PMA (Sigma) was dissolved in ethanol and diluted in the medium at a final concentration of 160 nM. LDL was equilibrated in PBS and diluted to 400 μg/mL and oxidized with 10 μM CuSO4 for 2.5 hours at 37 degrees C. The mildly oxidized LDL was equilibrated in RPMI 1640 and filter sterilized.
THP-1 cells were cultured in media containing PMA for 0, 2, 4, 8, and 8+1 days. Another set of plates were incubated with PMA for 8+1 days, with the mildly oxidized LDL also present in the last day. RNA was extracted and ADAMTS-1 message was analyzed by real time PCR.

[2] = molecular target: versican (large proteoglycan population secreted by primary human aortic smooth muscle cells) (UniProt P13611)
Sequence of UniProt P13611 (P13611 21-3396): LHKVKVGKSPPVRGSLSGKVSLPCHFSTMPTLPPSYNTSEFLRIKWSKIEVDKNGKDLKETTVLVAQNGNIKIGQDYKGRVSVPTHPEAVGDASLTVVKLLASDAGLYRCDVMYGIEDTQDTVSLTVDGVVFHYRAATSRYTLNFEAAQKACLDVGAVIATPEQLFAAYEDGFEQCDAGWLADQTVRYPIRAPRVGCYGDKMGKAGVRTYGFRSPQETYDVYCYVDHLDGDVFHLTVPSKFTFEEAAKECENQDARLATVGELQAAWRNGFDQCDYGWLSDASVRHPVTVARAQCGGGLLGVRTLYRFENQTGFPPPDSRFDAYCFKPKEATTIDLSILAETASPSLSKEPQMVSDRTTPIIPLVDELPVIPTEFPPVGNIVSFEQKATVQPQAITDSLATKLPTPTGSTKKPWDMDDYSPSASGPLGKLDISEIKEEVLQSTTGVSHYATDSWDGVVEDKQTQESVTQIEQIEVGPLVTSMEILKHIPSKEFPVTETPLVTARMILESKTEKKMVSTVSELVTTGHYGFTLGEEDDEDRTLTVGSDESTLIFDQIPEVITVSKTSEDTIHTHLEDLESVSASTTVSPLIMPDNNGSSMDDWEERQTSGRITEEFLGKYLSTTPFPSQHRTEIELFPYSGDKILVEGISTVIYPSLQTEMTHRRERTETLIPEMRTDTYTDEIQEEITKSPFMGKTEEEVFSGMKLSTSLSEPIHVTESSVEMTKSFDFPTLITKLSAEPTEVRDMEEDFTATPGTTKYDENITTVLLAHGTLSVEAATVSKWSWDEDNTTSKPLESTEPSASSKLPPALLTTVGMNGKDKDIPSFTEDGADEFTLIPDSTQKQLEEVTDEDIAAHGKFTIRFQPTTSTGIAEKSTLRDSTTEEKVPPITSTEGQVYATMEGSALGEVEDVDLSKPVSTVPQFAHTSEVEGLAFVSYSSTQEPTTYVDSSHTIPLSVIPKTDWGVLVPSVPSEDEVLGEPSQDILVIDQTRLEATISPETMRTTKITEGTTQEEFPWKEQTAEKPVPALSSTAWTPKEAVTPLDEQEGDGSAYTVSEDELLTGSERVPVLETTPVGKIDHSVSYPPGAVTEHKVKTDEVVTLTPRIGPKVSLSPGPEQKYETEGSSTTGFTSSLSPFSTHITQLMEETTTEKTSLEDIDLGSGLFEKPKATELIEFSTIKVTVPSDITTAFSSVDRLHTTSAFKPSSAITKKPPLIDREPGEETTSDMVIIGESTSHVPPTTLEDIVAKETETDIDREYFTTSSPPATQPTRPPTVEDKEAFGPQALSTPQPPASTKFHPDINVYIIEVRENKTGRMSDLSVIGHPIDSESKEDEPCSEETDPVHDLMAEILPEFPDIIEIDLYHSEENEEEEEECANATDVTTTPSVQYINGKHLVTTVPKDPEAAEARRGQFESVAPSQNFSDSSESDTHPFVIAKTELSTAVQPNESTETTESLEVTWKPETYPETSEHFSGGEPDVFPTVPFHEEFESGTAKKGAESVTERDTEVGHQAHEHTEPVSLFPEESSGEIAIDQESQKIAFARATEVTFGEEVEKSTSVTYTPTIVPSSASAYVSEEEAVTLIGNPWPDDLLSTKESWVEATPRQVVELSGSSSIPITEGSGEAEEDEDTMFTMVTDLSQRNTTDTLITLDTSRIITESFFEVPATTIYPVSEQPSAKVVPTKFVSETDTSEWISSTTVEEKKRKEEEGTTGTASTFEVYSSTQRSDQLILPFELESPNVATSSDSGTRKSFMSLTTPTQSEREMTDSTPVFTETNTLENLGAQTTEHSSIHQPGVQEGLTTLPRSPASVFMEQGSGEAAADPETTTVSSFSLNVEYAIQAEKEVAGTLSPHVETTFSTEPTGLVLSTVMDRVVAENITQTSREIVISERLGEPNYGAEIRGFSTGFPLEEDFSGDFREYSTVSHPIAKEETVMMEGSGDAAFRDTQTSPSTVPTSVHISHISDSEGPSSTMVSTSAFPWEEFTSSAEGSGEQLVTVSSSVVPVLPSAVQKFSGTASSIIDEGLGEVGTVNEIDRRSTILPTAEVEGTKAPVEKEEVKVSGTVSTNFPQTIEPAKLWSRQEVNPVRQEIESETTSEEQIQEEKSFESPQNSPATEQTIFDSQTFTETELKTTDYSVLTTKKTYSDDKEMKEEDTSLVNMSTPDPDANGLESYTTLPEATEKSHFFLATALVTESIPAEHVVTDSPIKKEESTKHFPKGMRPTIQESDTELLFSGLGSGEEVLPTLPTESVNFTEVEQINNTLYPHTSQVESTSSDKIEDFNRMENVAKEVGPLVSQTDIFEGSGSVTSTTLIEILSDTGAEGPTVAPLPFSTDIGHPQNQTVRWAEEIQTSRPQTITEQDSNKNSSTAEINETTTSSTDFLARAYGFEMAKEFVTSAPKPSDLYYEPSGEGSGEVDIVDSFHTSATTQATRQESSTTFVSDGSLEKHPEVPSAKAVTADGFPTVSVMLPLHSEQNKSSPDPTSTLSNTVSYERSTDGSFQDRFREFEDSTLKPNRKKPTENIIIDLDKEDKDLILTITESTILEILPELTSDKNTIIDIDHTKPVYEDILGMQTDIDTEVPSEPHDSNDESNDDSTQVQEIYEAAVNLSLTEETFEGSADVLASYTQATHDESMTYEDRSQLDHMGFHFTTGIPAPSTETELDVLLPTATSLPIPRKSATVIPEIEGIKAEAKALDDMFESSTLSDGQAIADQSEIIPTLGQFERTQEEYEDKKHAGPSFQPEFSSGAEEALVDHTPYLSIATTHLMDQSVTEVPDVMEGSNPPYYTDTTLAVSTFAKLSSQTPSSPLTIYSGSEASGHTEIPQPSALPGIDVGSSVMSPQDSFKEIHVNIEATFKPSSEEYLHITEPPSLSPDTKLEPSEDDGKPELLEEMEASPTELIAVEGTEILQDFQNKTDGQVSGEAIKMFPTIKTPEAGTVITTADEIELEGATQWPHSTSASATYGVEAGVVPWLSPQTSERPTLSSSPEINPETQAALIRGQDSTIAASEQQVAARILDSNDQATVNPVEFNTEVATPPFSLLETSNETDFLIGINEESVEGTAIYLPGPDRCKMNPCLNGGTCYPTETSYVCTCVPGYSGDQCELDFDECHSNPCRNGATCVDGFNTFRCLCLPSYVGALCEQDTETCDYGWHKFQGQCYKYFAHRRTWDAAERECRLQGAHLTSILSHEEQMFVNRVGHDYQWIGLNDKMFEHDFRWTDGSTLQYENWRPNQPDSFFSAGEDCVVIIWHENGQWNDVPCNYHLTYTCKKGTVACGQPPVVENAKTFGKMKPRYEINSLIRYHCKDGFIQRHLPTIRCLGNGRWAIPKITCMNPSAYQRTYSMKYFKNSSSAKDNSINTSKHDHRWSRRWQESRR

[3] = system: 38 amino acid peptide derived from the published cleavage site on the proteoglycan aggrecan
versican = test: Digestion of proteoglycans from aortic smooth muscle cells, size exclusion chromatography; type: biochemical, human; conditions: total proteoglycan from primary aortic smooth muscle cells incubated with ADAMTS-1 before size exclusion chromatography
Method: Human aortic smooth muscle cells were purchased from Clonetics (BioWhittaker) and cultured according to supplier. For preparation of total proteoglycan population (total PG), AoSMCs were seeded at 3000 cells/cm2 in SmBM2 media (4×80 cm2 flasks). 5 days later, the cells were washed with Dulbecco's PBS and BME-Diploid medium with FBS was added to the cells. 1 day later, fresh DME-Diploid medium without FBS, containing 35S-Sulfate 33 μCi/mL and 3H-Leucine 17 μCi/mL, 15 mL/bottle and incubated for 3 days. The medium was transferred and dialyzed against binding buffer containing 8M urea, 2 mM EDTA, 0.5% Triton X-100, and 20 mM Tris-HCl, pH 7.5, for 48 hours and applied to a pre-equilibrated Hi-Trap Q column. After washing with 25 mL of Elution buffer A (binding buffer+0.25 M NaCl, proteoglycan population is eluted with a linear salt gradient: 0.25-3 M NaCl in binding buffer. Total counts in each fraction were counted by liquid scintillation counting. The fractions containing PGs were pooled, dialyzed against water, lyophilized and stored at −20 degrees C. until use (‘total PG’).
Separation by size exclusion chromatography was performed using a Superdex 200 HR 10/30 from Amersham Pharmacia biotech. […] 1 mL fractions were collected and 35S measured for each fraction.

CCCCCCCCCCCCCC(=O)O[C@@H]1[C@@H](C)[C@@]2(O)[C@@H](C=C(CO)C[C@]3(O)C(=O)C(C)=C[C@@H]23)[C@@H]2C(C)(C)[C@]12OC(C)=O [PMA]
ADAMTS-1 message level [1]: induced

recombinant ADAMTS-1
size exclusion chromatography of total proteoglycan incubated with or without ADAMTS-1 [2]: In the presence of ADAMTS-1, the size of the large proteoglycan population made up primarily of versican is reduced and the size of the peak corresponding to smaller sized proteoglycan population is increased
cleavage of peptide substrate, HPLC analysis [3]: Cleavage of the peptide by recombinant ADAMTS-1 has been confirmed by HPLC analysis

B1: ADAMTS-1: metalloproteinase (A Disintegrin-like And Metalloprotease with Thrombospondin type 1 motif), incubated with total proteoglycan (protein)
chain: FVSSHRYVETMLVADQSMAEFHGSGLKHYLLTLFSVAARLYKHPSIRNSVSLVVVKILVIHDEQKGPEVTSNAALTLRNFCNWQKQHNPPSDRDAEHYDTAILFTRQDLCGSQTCDTLGMADVGTVCDPSRSCSVIEDDGLQAAFTTAHELGHVFNMPHDDAKQCASLNGVNQDSHMMASMLSNLDHSQPWSPCSAYMITSFLDNGHGECLMDKPQNPIQLPGDLPGTSYDANRQCQFTFGEDSKHCPDAASTCSTLWCTGTSGGVLVCQTKHFPWADGTSCGEGKWCINGKCVNKTDRKHFDTPFHGSWGMWGPWGDCSRTCGGGVQYTMRECDNPVPKNGGKYCEGKRVRYRSCNLEDCPDNNGKTFREEQCEAHNEFSKASFGSGPAVEWIPKYAGVSPKDRCKLICQAKGIGYFFVLQPKVVDGTPCSPDSTSVCVQGQCVKAGCDRIIDSKKKFDKCGVCGGNGSTCKKISGSVTSAKPGYHDIITIPTGATNIEVKQRNQRGSRNNGSFLAIKAADGTYILNGDYTLSTLEQDIMYKGVVLRYSGSSAALERIRSFSPLKEPLTIQVLTVGNALRPKIKYTYFVKKKKESFNAIPTFSAWVIEEWGECSKSCELGWQRRLVECRDINGQPASECAKEVKPASTRPCADHPCPQWQLGEWSSCSKTCGKGYKKRSLKCLSHDGGVLSHESCDPLKKPKHFIDFCTMAECS
cleavage of large proteoglycan population (versican) (versican): the size of the large proteoglycan peak is diminished
